What was measured:
IgG = IgG (rabbit, UniProt P01870 P01870:1-323); test: SPR; details: tags: Zymed Laboratories, chain copies: 2, label: 3' A16 tail for immobilisation
Protocol: (§1) Used for the measurements was BIAcore 2000 manufactured by BIAcore. Used as the sensor chip was the SA chip having streptavidin immobilized thereon. Bound thereto was about 1000 RU of 16-residue Poly dT having biotin bound to the 5′ end thereof. The RNA for use as the ligand had 16-residue Poly A added to the 3′ end thereof, and immobilized to the SA chip via a bond between dT and A. The amount immobilized was adjusted to about 1000 RU by injecting 60 μL at a concentration of 0.01 μg/μL. 70 μL of IgG-Fc for analyte (manufactured by Athens Research & Technology), adjusted to 0.6 μM, was injected. The running buffer used had the same components as those of the solution A used in SELEX.
(§2) Whether or not the prepared RNA aptamers also have binding affinity for subclasses of IgG other than human IgG1 or for IgG of animal species other than humans was determined using a surface plasmon resonance method. Measurements were performed in the same manner as Example 1 by immobilizing a nucleic acid having 16-residue Poly A added thereto via an A-pT bond, and injecting IgG thereto. Used as the RNA aptamers were the nucleic acids shown by SEQ ID NO:1 and 17. Used as the antibodies were human IgG1 (manufactured by Calbiochem), human IgG2 (manufactured by Calbiochem), human IgG3 (manufactured by Calbiochem), human IgG4 (manufactured by Calbiochem), mouse IgG1 (manufactured by Chemicon International), mouse IgG2a (manufactured by Chemicon International), mouse IgG2b (manufactured by Zymed Laboratories), mouse IgG3 (manufactured by Bethyl Laboratories), rat IgG1 (manufactured by R & D Systems), rat IgG2a. (manufactured by Zymed Laboratories), rat IgG2b. (manufactured by Zymed Laboratories), rat IgG2c (manufactured by UK-Serotec), rabbit IgG (manufactured by Zymed Laboratories), bovine IgG1 (manufactured by Bethyl Laboratories), bovine IgG2 (manufactured by Bethyl Laboratories), chicken IgG (manufactured by Rockland), dog IgG (manufactured by Rockland), cat IgG (manufactured by Bethyl Laboratories), guinea pig IgG (manufactured by Biogenesis), hamster IgG (manufactured by Rockland), and swine IgG (manufactured by Rockland).

IgG2b = IgG2b (mouse, UniProt P01867-2 P01867-2:98-335); test: SPR; details: tags: Zymed Laboratories, chain copies: 2, label: 3' A16 tail for immobilisation
Protocol: as §1, §2

IgG2a = IgG2a (mouse, UniProt P01863 P01863:98-330); test: SPR; details: tags: Chemicon International, chain copies: 2, label: 3' A16 tail for immobilisation
Protocol: as §1, §2

IgG2c = IgG2c (rat, UniProt P20762 P20762:1-329); test: SPR; details: tags: UK-Serotec, chain copies: 2, label: 3' A16 tail for immobilisation
Protocol: as §1, §2

IgG2 = IgG2 (human, UniProt P01859-1 P01859-1:99-326); test: SPR; details: tags: Calbiochem, chain copies: 2, label: 3' A16 tail for immobilisation
Protocol: as §1, §2

IgG3 = IgG3 (human, UniProt P01860-1 P01860-1:99-377); test: SPR; details: tags: Calbiochem, chain copies: 2, label: 3' A16 tail for immobilisation
Protocol: as §1, §2

IgG4 = IgG4 (human, UniProt P01861-1 P01861-1:99-327); test: SPR; details: tags: Calbiochem, chain copies: 2, label: 3' A16 tail for immobilisation
Protocol: as §1, §2

IgG1 [1] = biological target: T1, IgG1 (human, UniProt P01857-1 P01857-1:1-330); test: SPR; solution A; short aptamers fit bivalent 1:2 model better; details: tags: Calbiochem; chain copies: 2; label: 3' A16 tail for immobilisation
IgG1 [2] = biological target: T1, IgG1; test: SPR; +++ in Table 4; binding not reduced in 500 mM NaCl, 2 mM MgCl2; details: tags: Calbiochem; chain copies: 2
IgG1 [3] = biological target: T1, IgG1; test: SPR; text says higher than SEQ 17, table shows equal; details: tags: Calbiochem; chain copies: 2
Protocol: as §1
The RNAs were prepared by chemical synthesis (manufactured by Gene Design). Their binding affinities were measured by a surface plasmon resonance method as in Example 1. Used as the IgG was human IgG1 (manufactured by Calbiochem).

Protein A = Protein A (UniProt P02976 P02976:37-485); test: SPR; control; Protein A bound only when IgG1 was on the aptamer; details: tags: MP Biomedicals; label: 3' A16 tail for immobilisation; GGUGCU bulge
Protocol: as §1

IgG1 [4] = biological target: T1, IgG1; test: SPR; solution A: 145 mM NaCl, 5.4 mM KCl, 1.8 mM CaCl2, 0.8 mM MgCl2, 20 mM Tris pH 7.6; details: tags: Calbiochem; chain copies: 2; label: 3' A16 tail for immobilisation; GGUGCU bulge
Protocol: as §1
The dissociation constant was determined by immobilizing an RNA having 16-residue PolyA added to the 3′ end thereof onto a sensor chip via an A-dT bond, injecting different concentrations of IgG (0.6 μM to 0.05 μM), and performing surface plasmon resonance.

T1 sequence (P01857 other isoform, or with tags, fused parts or gaps): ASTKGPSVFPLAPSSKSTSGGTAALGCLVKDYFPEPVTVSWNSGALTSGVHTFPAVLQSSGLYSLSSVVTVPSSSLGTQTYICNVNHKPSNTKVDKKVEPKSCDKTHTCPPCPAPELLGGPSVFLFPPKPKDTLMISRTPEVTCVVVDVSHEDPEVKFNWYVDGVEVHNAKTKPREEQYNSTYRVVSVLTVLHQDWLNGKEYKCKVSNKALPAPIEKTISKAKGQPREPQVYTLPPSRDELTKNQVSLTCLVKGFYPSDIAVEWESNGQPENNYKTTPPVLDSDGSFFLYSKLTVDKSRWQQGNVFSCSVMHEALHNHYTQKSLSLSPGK
Sequence of IgG2c (P20762 whole entry, one chain of several): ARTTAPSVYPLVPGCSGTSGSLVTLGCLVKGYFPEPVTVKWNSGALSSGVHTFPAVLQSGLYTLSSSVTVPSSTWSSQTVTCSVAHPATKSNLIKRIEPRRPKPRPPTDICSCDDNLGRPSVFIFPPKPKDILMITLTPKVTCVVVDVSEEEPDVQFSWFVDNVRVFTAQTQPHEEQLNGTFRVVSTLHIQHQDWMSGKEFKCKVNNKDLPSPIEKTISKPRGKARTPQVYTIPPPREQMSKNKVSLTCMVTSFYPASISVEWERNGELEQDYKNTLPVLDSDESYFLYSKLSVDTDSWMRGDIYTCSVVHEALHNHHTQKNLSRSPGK
Sequence of IgG (P01870 whole entry, one chain of several): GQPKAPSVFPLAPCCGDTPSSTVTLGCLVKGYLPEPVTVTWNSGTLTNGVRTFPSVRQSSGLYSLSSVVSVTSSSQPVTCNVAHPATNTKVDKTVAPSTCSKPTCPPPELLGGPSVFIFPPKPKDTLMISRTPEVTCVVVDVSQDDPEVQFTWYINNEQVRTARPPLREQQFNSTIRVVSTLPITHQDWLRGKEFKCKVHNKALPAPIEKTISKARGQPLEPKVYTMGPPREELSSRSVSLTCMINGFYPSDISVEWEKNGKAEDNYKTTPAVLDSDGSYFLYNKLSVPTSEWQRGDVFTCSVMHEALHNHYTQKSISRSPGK
Sequence of IgG2 (P01859 other isoform, or with tags, fused parts or gaps): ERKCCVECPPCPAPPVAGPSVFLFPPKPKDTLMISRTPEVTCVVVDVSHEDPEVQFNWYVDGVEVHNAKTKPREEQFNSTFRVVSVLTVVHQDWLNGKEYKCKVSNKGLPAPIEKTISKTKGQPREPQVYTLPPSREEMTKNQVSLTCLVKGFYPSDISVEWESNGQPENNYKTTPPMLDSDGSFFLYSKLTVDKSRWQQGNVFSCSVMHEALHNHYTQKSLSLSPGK
Sequence of IgG3 (P01860 other isoform, or with tags, fused parts or gaps): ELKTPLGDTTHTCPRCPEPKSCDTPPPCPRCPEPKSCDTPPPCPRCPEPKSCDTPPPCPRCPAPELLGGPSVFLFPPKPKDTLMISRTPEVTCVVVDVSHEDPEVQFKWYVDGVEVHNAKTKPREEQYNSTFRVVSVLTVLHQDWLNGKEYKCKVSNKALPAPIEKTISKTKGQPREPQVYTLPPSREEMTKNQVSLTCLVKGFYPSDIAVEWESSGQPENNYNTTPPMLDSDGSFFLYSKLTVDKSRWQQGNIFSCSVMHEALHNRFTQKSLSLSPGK
Sequence of IgG2a (P01863 98-330, one chain of several): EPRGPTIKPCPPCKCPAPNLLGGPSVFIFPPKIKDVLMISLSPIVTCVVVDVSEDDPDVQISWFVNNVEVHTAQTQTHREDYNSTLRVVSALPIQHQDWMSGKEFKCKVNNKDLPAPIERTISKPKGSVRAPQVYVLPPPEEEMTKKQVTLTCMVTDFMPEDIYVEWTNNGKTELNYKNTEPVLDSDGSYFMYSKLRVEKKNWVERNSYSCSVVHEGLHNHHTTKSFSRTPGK
Sequence of IgG2b (P01867 other isoform, or with tags, fused parts or gaps): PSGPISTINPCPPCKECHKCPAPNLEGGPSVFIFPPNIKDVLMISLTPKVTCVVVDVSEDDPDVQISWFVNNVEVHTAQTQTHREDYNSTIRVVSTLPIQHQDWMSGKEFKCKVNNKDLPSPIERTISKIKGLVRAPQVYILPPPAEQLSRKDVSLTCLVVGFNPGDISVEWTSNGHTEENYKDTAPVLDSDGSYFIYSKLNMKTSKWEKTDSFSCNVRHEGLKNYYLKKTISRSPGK
Sequence of IgG4 (P01861 other isoform, or with tags, fused parts or gaps): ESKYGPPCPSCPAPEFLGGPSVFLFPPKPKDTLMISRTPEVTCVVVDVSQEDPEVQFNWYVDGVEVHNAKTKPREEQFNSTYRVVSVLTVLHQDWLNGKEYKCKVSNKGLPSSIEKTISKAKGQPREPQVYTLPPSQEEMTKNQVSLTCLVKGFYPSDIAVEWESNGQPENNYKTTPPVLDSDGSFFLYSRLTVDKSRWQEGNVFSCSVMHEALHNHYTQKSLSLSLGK
Sequence of Protein A (P02976 37-485, one chain of several): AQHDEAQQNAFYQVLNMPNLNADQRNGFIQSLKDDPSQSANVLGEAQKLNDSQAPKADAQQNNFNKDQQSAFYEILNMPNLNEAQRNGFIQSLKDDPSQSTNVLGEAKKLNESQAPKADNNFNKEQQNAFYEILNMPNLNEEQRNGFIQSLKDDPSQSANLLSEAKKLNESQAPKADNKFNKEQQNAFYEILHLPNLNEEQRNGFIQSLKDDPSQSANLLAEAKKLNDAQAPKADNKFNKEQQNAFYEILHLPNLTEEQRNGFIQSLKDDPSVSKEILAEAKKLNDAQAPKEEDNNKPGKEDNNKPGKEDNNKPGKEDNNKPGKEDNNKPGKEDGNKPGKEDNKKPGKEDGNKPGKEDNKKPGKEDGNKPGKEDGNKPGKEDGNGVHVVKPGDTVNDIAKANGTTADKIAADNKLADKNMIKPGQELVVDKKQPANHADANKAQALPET

GGAGGUGCUCCGAAAGGAACUCC (ssRNA, 2'-F at all pyrimidines) [SEQ ID NO:17]
binding result (IgG): no binding
binding result (IgG2b): no binding
binding result (IgG2a): no binding
binding result (IgG2c): no binding
binding result (IgG2): binds
binding result (IgG3): binds
binding result (IgG4): binds
Kd (IgG1 [1]): 10 nM

B1: SEQ ID NO:17-7 (23F23) (mixed)
RNA: GGAGGUGCUCCGAAAGGAACUCCAAAAAAAAAAAAAAAA
modifications: deoxy G1 G2 C8 C10 C11 G12-A15 A18 A19 C22 C23 and A16 tail; 2'-F U6 U9 C20 U21; rest 2'-OH
binding result (IgG1 [2]): binds

GGAGGUGCUCCGAAAGGAACUCCAAAAAAAAAAAAAAAA (mixed, as 17-7 with 2'-OMe G16) [SEQ ID NO:17-9 (23F32)]
binding result (IgG1 [3]): binds

B2: SEQ ID NO:1 (ssRNA)
RNA: GGGACACAAUGGACGAGUUACAGGUGCUCCAUCAACAAAAUGUUACAUGGAACUGUAACGGCCGACAUGAGAG
modifications: 2'-F at all pyrimidines
binding result (IgG; GGUGCU bulge): no binding
binding result (IgG2b; GGUGCU bulge): no binding
binding result (IgG2a; GGUGCU bulge): no binding
binding result (IgG2c; GGUGCU bulge): no binding
binding result (IgG2; GGUGCU bulge): binds
binding result (IgG3; GGUGCU bulge): binds
binding result (IgG4; GGUGCU bulge): binds
binding result (Protein A): no binding
Kd (IgG1 [4]): 0.3 nM
